In the nanobody polyreactivity screen of Harvey et al. (2022):

assay: yeast display, Sf9 membrane polyspecificity reagent, FACS + sequencing; frameworks hold sequencing errors
In short: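 Nanobodies came from a synthetic yeast display library in Saccharomyces cerevisiae BJ5465, induced with galactose for 36–48 hours and stained for 1 hour at 4 °C with 10% biotinylated, detergent-solubilized Sf9 membrane reagent. Cells were enriched on streptavidin microbeads and then FACS-sorted, with low and high (top ~1%) gates set on anti-HA fluorescence for expression and streptavidin fluorescence for reagent binding. Each polyreactivity label reflects the gate a clone came from. Genes were amplified by colony PCR, sequenced by MiSeq 2 × 250 and filtered by CDR length.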

Q: For “QVQLVESGGGLVHAGGSLRLSCAASGINFFPYAMGWYRQAPGKERELVASINISDSSTYYADSVKGRFTISRDNAKNTVYLQMNSLKPEDTAVYYCAADNRGDSWYWHGYWGQGTQVSVSS”, which “polyreactivity (PSR sort gate)” value is on record?
A: low polyreactivity

Q: For “QVQLVESGGGLVHAGGSLRLSCAASGLTFAYNTMGWYRQAPGKEREFVASISSSGGNTYYADSVKGRFTISRDNAKNTVYVQMNSLKPEDTAVYFCAAKKKYHYVASYKRFEYWGQGTQVTVSS”, which “polyreactivity (PSR sort gate)” value is on record?
A: low polyreactivity

Q: With “QVQLVESGGGLVHAGGSLRLSCAASGRIFNYYAMGWYRQAPGKERALVAAISSGGSTYYADSEKGRFTISRDNAKNTVYLQMHSLKPEDTAVDYCNRVPRGVSRQDDYWGQGTQVTVSS” as the sequence, how does the “polyreactivity (PSR sort gate)” value read?
A: high polyreactivity

Q: For “QVQLVESGGGLVHAGGSLRLSCAASGRIFPSYAMGWYRQAPGKERELVAAISYSGASTYYADSVKGRFTISRDNAKNTVYLQMNSLKPEDTAVYYCATDHESVRVLVSSTSDYDYWGQGTQVTVSS”, which “polyreactivity (PSR sort gate)” value is on record?
A: low polyreactivity

Q: With “QVQLVESGGGLVHAGGSLRLSCAASGRIFRRYAMGWYRQAPGKERELVASISSGGSTNYADSLKGRFTISRDNAKNTVYLQMNSLNPEDTAVYYCNVYYGYFRSRYCYWGQGTQVTVSS” as the sequence, how does the “polyreactivity (PSR sort gate)” value read?
A: high polyreactivity

Q: Which “polyreactivity (PSR sort gate)” value does the source give for “QVQLVESGGGLVHAGGSLRLSCAASGRIFTIYAMGWYRQAPGKERELVAAISDRGTRTYYADSVKGRFTISRDNAKNTVYLQMNSLKPEETAVYYCATDALYTYGYDYWGQGTQVTVSS” here?
A: low polyreactivity

Q: Which “polyreactivity (PSR sort gate)” value does the source give for “QVQLVESGGGLVHAGGSLRLSCAASGRIFYQYAMGWYRQAPGKERELVAAIRYRDDGTYYADSVKGRLTISRDNAKNTVYLQMNSLKPEDTAVYYCAGKQWGRYGYWGQGTQVTVSS” here?
A: high polyreactivity

Q: Which “polyreactivity (PSR sort gate)” value does the source give for “QVQLVESGGGLVHAGGSLRLSCAASGRILVDYAMGWYRQAPGKERELVAAITSTGGTTYYADSVKGRFTISRDNAKNTVYLQMNSLKPEDTAVYYCAAKRQDSWGGTYGYWGQGTQVTVSS” here?
A: low polyreactivity

Q: Which “polyreactivity (PSR sort gate)” value does the source give for “QVQLVESGGGLVHAGGSLRLSCAASGRISFYYALGWYRQAPGKERALVATISRGDITYYADSVKGRFTISRDNAKNTVYLQLNSLKPEDTAVYYCNARNNYWWYGPGYVYWGQGTQVTVSS” here?
A: low polyreactivity

Q: Which “polyreactivity (PSR sort gate)” value does the source give for “QVQLVESGGGLVHAGGSLRLSCAASGRTFASYAIGWYRQAPGKERELVARISKSGGSTYYADSVKGRFTISRDNAKNTVYLQMNSLKPEDTAVYYCAATRYPYLYRSEVGSDYWGQGTQVTVSS” here?
A: low polyreactivity

Q: Which “polyreactivity (PSR sort gate)” value does the source give for “QVQLVESGGGLVHAGGSLRLSCAASGRTFIRYAMGWYIQAPGKERQLVAAISSSGGSTYYADSVKGRFTISRDNAKNTVYLQMNSLKPEDTAVYYCNAYVYYSHEDDYWGQGTQVTVSS” here?
A: high polyreactivity

Q: Which “polyreactivity (PSR sort gate)” value does the source give for “QVQLVESGGGLVHAGGSLRLSCAASGRTFKYYGMGWYREAPGKERELVATISRSSSRTYYADSVKGRFTISRDNAKNTVYLQMNSLKPEDTAVYYCAADRWGARRKQYDENGYWGQGTQVTVSS” here?
A: high polyreactivity

Q: With “QVQLVESGGGLVHAGGSLRLSCAASGRTFNGYVMGWYRQAPGKERELVAAITNRDGSTYYADSVKGRFTISRDNAKNTVYLQMYSLKPEDSAVYYCAAPVWLWADRYDSWGQGTQVTVSS” as the sequence, how does the “polyreactivity (PSR sort gate)” value read?
A: low polyreactivity

Q: Which “polyreactivity (PSR sort gate)” value does the source give for “QVQLVESGGGLVHAGGSLRLSCAASGRTFYYNAKGWYRQAPGKESELVAAISSGDSTYYADSVKGRFTISRDNAKNTVSLQLNSLKPEDTAVYYCYADTGLGSLDFDKRDYWGQGTQVTVSS” here?
A: low polyreactivity

Q: With “QVQLVESGGGLVHAGGSLRLSCAASGSIFAANAMGWYRQAPGKERELVAAISSSGDITYYADSVKGRFTISRDNAKNSVFLQMNSLKPEDTAVYYCAARRYPYHEDNYWGQGTQVTVSS” as the sequence, how does the “polyreactivity (PSR sort gate)” value read?
A: high polyreactivity

Q: For “QVQLVESGGGLVHAGGSLRLSCAASGSIFAGNAMGWYRQAPGNERELVAGISRSGGSTNYADSVKGRFTISRDNAKNTVYLQMIRLKPEDTAVYYFAASATPSGVGMDYWGQGTQVNVSS”, which “polyreactivity (PSR sort gate)” value is on record?
A: low polyreactivity

Q: With “QVQLVESGGGLVHAGGSLRLSCAASGSIFFHNAMGWYRQAPGKERELVAAISGGGSTTYADSVKGRFTISRDNAKNTVYLQMNSLKPEDTAVYYCAKSYRYYALHYSPGWYNYWGQGTQVTVSS” as the sequence, how does the “polyreactivity (PSR sort gate)” value read?
A: high polyreactivity

Q: For “QVQLVESGGGLVHAGGSLRLSCAASGSIFLLYAMGWYRQAPGKERELVAAITSSGGSTNYADSVKGRFTISRDNAKNTVYLQMNSLKPEDTAVYYCATAPYAYTILGSRFDYWGQGTQVTVSS”, which “polyreactivity (PSR sort gate)” value is on record?
A: low polyreactivity

Q: Which “polyreactivity (PSR sort gate)” value does the source give for “QVQLVESGGGLVHAGGSLRLSCAASGSIFQYNAMGWYRQAPWKERELVAAITSTGDTNYADSVKGRFTISRDNAKNTVYLQMNSLKPEDTAVYYCAADVYGTVRRVGWYYVGEGYDYWGQGTQVTVSS” here?
A: low polyreactivity

Q: With “QVQLVESGGGLVHAGGSLRLSCAASGSIFRVYTMGWYRQAPGKERELVAAISRSGGRTYYADSVKGRFTISRDNAKNTVYLQMNSLKPEDTAVYYCATRPKVAYEYDYWGQGTQVTVSS” as the sequence, how does the “polyreactivity (PSR sort gate)” value read?
A: high polyreactivity

Q: For “QVQLVESGGGLVHAGGSLRLSCAASGSIFSAYAMGWYRQAPGKERELVAAISRSGGRTYYADSVKGRFTISRDNAKNTVYLQMNSLKPEDTAVYYCAAYFTYYSTLGRWYRYDYWGQGTQVTVSS”, which “polyreactivity (PSR sort gate)” value is on record?
A: high polyreactivity

Q: Which “polyreactivity (PSR sort gate)” value does the source give for “QVQLVESGGGLVHAGGSLRLSCAASGSIFYRNVMGWYRQAPGKERELVAAISRSGGSTYYADSVKGRFTISRDNAKNTVYLQMNSLKPEDTAVYYCAVRYSPFYYWGQGTQVTVSS” here?
A: high polyreactivity

Q: For “QVQLVESGGGLVHAGGSLRLSCAASGSTFGDNAMGWYRQAPGKERELVAAITSGTSTNYADSVKGRFTISRDNAKNTVYLQMNSLKPEDTAVYYCAAQYYGVAKQGLDEEDYWGQGTQVTVSS”, which “polyreactivity (PSR sort gate)” value is on record?
A: low polyreactivity

Q: For “QVQLVESGGGLVHAGGSLRLSCAASGSTFKIYAMGLYRQAPGKERELVASIRGRGGSTYYADSVKGRFTISRDNAKNTVYLQMNSLKPEDTAVYYCNATYGHRYPACISYDYWGQGTQGTVSS”, which “polyreactivity (PSR sort gate)” value is on record?
A: high polyreactivity

Q: Which “polyreactivity (PSR sort gate)” value does the source give for “QVQLVESGGGLVHAGGSLRLSCAASGSTFPGYAMGWYRQAPGKERELVAAISKRGGSTRYADSVKGRFTISRDNANNTVYLQMNSLKPEDTAVYYCAASYSYSGSGGGYWGQGTQVTVSS” here?
A: high polyreactivity

Q: With “QVQLVESGGGLVHAGGSLRLSCAASGSTFRHNAMGWYRQAPGKERELVAAINRSGVSTHYADSVKGRFTISRDNAKNTVYLQMNSLKPEDTAVYYCAVDSYPKSLWYYGGVYSPLDYWGQGTQVTVSS” as the sequence, how does the “polyreactivity (PSR sort gate)” value read?
A: low polyreactivity

Q: For “QVQLVESGGGLVHAGGSLRLSCAASGSTFVEYVMGWYRQAPGKERELVASIDVGTTSTRYADSVKGRFTISRDNAKNTVYLQMNSLKPEDTAVYYCNADGYYSGYWTNYDYWGQGTQVTVSS”, which “polyreactivity (PSR sort gate)” value is on record?
A: low polyreactivity

Q: With “QVQLVESGGGLVHAGGSLRLSCAASGSTLGSYAMGWYRQAPGKERELVARITTGGGTSYADSVKGRFTISRDNAKNTVYLQMNSLKPEDTAVYYCAATFIYGARTYGYWGQGTQVTVSS” as the sequence, how does the “polyreactivity (PSR sort gate)” value read?
A: high polyreactivity

Q: Which “polyreactivity (PSR sort gate)” value does the source give for “QVQLVESGGGLVHAGGSLRLSCADSGRIIGINAMGCYRQAPGKERELVAAINWSGGSTYYADSVKGRFTISRDNAKNTVYLQMNSLKPEDTAVYYCAAQKYKRVGYWGLGTQVTVSS” here?
A: high polyreactivity

Q: Which “polyreactivity (PSR sort gate)” value does the source give for “QVQLVESGGGLVHAGGSLRLSCAPSRIFVYNAMGWYRQAPGKERELVATITSSGGITYYADSVKGRFTISRDNAKNTVYLQMNSLKPEDTAVYYCNKVRRYYYRTHNDFWGQGTQVTVSS” here?
A: high polyreactivity

Q: Which “polyreactivity (PSR sort gate)” value does the source give for “QVQLVESGGGLVHAGGSLRLSCASTGFIYQPYAMGWYRQAPGKEMELVAAITSRGGRTYYADSVKGRFTISRDIANNTVYLQMNRLNPVDTAVYYCNADIYASEYYYWGQGTQVTVSS” here?
A: low polyreactivity

Q: Which “polyreactivity (PSR sort gate)” value does the source give for “QVQLVESGGGLVHAGGSLRLSCDASGSIFDGYGMGWYRQAPGKERELVASITWNDGSTYYADSVKGRFTISRDNAKNTVYLQMNSLKPEDTAVYYCAADQWGYEYDYWGQGTQVTVSS” here?
A: low polyreactivity

Q: With “QVQLVESGGGLVHAGGSRRLSCAASGNFFRYYVLGWYRQAPGTERECVAAITSSGGSKYYADSVKGRFTISRDNANNTVYLQMNSLKPEDTAVYYCAKDYWDPGWAEYDFWGQGTQVTVSS” as the sequence, how does the “polyreactivity (PSR sort gate)” value read?
A: low polyreactivity

Q: With “QVQLVESGGGLVHAGGTIEPYAMGWYRQAPGKERELVAPIRTSGGGTYYADSVKGRFTISRDNAKNTVYLQMYSLKPEDTAVYYCAAKSGPTLQRYYSYIFDYWGQGTQVTVSS” as the sequence, how does the “polyreactivity (PSR sort gate)” value read?
A: low polyreactivity

Q: Which “polyreactivity (PSR sort gate)” value does the source give for “QVQLVESGGGLVHAGVSLRISCAASGRIFKQYAMGWYRQAPGNERELVAAISVRGGITYYADSVKGRFTISRYHAKNTVYLQMKSLNPEDTAVYYCAKRSYRNHTYDYWGQGTQVTVSS” here?
A: low polyreactivity

Q: Which “polyreactivity (PSR sort gate)” value does the source give for “QVQLVESGGGLVHGGGSLSLSFDASGSIFRVYPMGWYSPAPGKERELVAAIDSGPSTTYADCVTGRFTISRDNAKNTVYLLMNRLKPVDTEVYCFAADGWLWSFTGDGWWFDYWGQGTQVSVSS” here?
A: low polyreactivity

Q: Which “polyreactivity (PSR sort gate)” value does the source give for “QVQLVESGGGLVHSGGSLRLSCAASGRIFLPYGMGWYRKAPGKERELVATITIGGSTTYADSVKGRFTISRDNAKNTVYLLMNSLKPEDTAVYYCAVLRWVYYLHGYDYWGHGTQVTVSS” here?
A: low polyreactivity

Q: With “QVQLVESGGGLVKAGAILRLSCPASGSTFQSYAKGWSRQEPGKESELVAAISSGGITYYADSVKGRFTISRDNAKNTVYFQMNSLKPEDTAVYYCAKVPTYLISNRYSRYDYWGQGTQVTVSS” as the sequence, how does the “polyreactivity (PSR sort gate)” value read?
A: low polyreactivity

Q: With “QVQLVESGGGLVKAGCSLRLICAASGSIFYQYAMGWNRQAPGNVRELVAAITRRGSRTYYADSVKGRFTISRDNAKNTVYLQMNSLKPEDTAVYYCAAGSFYGIYYYRTDDYWGQGTQVTVSS” as the sequence, how does the “polyreactivity (PSR sort gate)” value read?
A: high polyreactivity

Q: Which “polyreactivity (PSR sort gate)” value does the source give for “QVQLVESGGGLVKAGGILRLSCAASGYIFVRYAMGWYRQAPGKERELVAAISYRGGSTYADSVKGRFTISRDNAKNTVYLQMNRLKPEDTAVYYCAAQRWYVYGQKYHYGYWGQVTQVTVSS” here?
A: high polyreactivity

Q: For “QVQLVESGGGLVKAGGSIRLSCAASGSIFTWYAMGWYRQAPGKESELVAAISEDGGSTYYADSVKGRFTISRDNAKNSVFLQMNSLKPEDTAVYYCATPVASVTGYDYWGQGTQVTVSS”, which “polyreactivity (PSR sort gate)” value is on record?
A: low polyreactivity

Q: With “QVQLVESGGGLVKAGGSLLLSCAASGRTIAYNAMGWYRQATGKERELVDAISNSGGRTYYADSVKGRFTISRDNAKNTVYLQMKSLKPEDTAVYYCAAYPVYRSVVSAYGYNYWGQGTQVTVSS” as the sequence, how does the “polyreactivity (PSR sort gate)” value read?
A: high polyreactivity

Q: For “QVQLVESGGGLVKAGGSLLLSCAASGSTFRVNFMGWYRKSPGKERELVAAITTSGGSKYYADSVKGRFTITRDNAKNSVFLQMNSEKLDDTAVYFCNTTYPSGWGPETDYWGQGIQVTVSS”, which “polyreactivity (PSR sort gate)” value is on record?
A: low polyreactivity
